Source: publication PMC6520365, “Structural and functional characterization of the PDZ domain of the human phosphatase PTPN3 and its interaction with the human papillomavirus E6 oncoprotein” (Scientific Reports, 2019)

What was measured:
[1] = target: PDZ domain of the human protein tyrosine phosphatase non-receptor type 3 (PTPN3-PDZ) (human) (UniProt P26045); assay: AUC; sedimentation velocity, PTPN3-PDZ alone at 25 μM, 20 °C, 42000 rpm; monomer and dimer peaks
[2] = target: p38γ PBM (Homo sapiens); conditions: cited from earlier work

Sequence of PTPN4 PDZ (P29074 514-592): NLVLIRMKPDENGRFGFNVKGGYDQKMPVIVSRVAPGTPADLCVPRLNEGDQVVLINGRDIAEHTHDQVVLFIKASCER

Substance	stoichiometry N [1]	Kd [2] [µM]
PDZ domain of the human protein tyrosine phosphatase non-receptor type 3 (PTPN3-PDZ) (from UniProt P26045-1 504-913) (domain or fragment)	2	–
PTPN4 PDZ (from UniProt P29074)	–	1.6
